Positions count from the first letter of the chain named. Numbers in names are those of the source. Read-outs that look alike come from different tables or passages of the source.
B1: ACAD9-His6 R469W (enzyme)
chain: AFAKELFLGKIKKKEVFPFPEVSQDELNEINQFLGPVEKFFTEEVDSRKIDQEGKIPDETLEKLKSLGLFGLQVPEEYGGLGFSNTMYSRLGEIISMDGSITVTLAAHQAIGLKGIILAGTEEQKAKYLPKLASGEHIAAFCLTEPASGSDAASIRSRATLSEDKKHYILNGSKVWITNGGLANIFTVFAKTEVVDSDGSVKDKITAFIVERDFGGVTNGKPEDKLGIRGSNTCEVHFENTKIPVENILGEVGDGFKVAMNILNSGRFSMGSVVAGLLKRLIEMTAEYACTRKQFNKRLSEFGLIQEKFALMAQKAYVMESMTYLTAGMLDQPGFPDCSIEAAMVKVFSSEAAWQCVSEALQILGGLGYTRDYPYERILRDTRILLIFEGTNEILRMYIALTGLQHAGRILTTRIHELKQAKVSTVMDTVGWRLRDSLGRTVDLGLTGNHGVVHPSLADSANKFEENTYCFGRTVETLLLRFGKTIMEEQLVLKRVANILINLYGMTAVLSRASRSIRIGLRNHDHEVLLANTFCVEAYLQNLFSLSQLDKYAPENLDEQIKKVSQQILEKRAYICAHPLDRTC
B2: ACAD9 (non-tagged wild type) (enzyme)
chain: B1 chain with W432R
B3: ACAD9-His6 E426Q (enzyme)
chain: B1 chain with E389Q, W432R
B4: ACAD9-His6 (wild type ACAD9 with a C-terminal His-tag) (enzyme)
chain: B1 chain with W432R
B5: ACAD9-His6 R518H (enzyme)
chain: B1 chain with W432R, R481H
B6: ACAD9-His6 R532W (enzyme)
chain: B1 chain with W432R, R495W
B7: Loop12-ACAD9 (ACAD9-His6 with the linker between Thr450 and Asp480 replaced by 12 residues of GGS repeats) (enzyme)
chain: AFAKELFLGKIKKKEVFPFPEVSQDELNEINQFLGPVEKFFTEEVDSRKIDQEGKIPDETLEKLKSLGLFGLQVPEEYGGLGFSNTMYSRLGEIISMDGSITVTLAAHQAIGLKGIILAGTEEQKAKYLPKLASGEHIAAFCLTEPASGSDAASIRSRATLSEDKKHYILNGSKVWITNGGLANIFTVFAKTEVVDSDGSVKDKITAFIVERDFGGVTNGKPEDKLGIRGSNTCEVHFENTKIPVENILGEVGDGFKVAMNILNSGRFSMGSVVAGLLKRLIEMTAEYACTRKQFNKRLSEFGLIQEKFALMAQKAYVMESMTYLTAGMLDQPGFPDCSIEAAMVKVFSSEAAWQCVSEALQILGGLGYTRDYPYERILRDTRILLIFEGTNEILRMYIALTGLQHAGRILTTGGSGGSGGSGGSDLGLTGNHGVVHPSLADSANKFEENTYCFGRTVETLLLRFGKTIMEEQLVLKRVANILINLYGMTAVLSRASRSIRIGLRNHDHEVLLANTFCVEAYLQNLFSLSQLDKYAPENLDEQIKKVSQQILEKRAYICAHPLDRTC
B8: His6-SMT3-NDUFAF1 (SUMO fusion of mature human NDUFAF1) (natural protein)
chain: YPFLGIRFAEYSSSLQKPVASPGKASSQRKTEGDLQGDHQKEVALDITSSEEKPDVSFDKAIRDEAIYHFRLLKDEIVDHWRGPEGHPLHEVLLEQAKVVWQFRGKEDLDKWTVTSDKTIGGRSEVFLKMGKNNQSALLYGTLSSEAPQDGESTRSGYCAMISRIPRGAFERKMSYDWSQFNTLYLRVRGDGRPWMVNIKEDTDFFQRTNQMYSYFMFTRGGPYWQEVKIPFSKFFFSNRGRIRDVQHELPLDKISSIGFTLADKVDGPFFLEIDFIGVFTDPAHTEEFAYENSPELNPRLFK
B9: His6-C-ECSIT (C-terminal domain of ECSIT, Leu249-Ser431, with N-terminal His tag) (domain or fragment)
chain: LPKDSTGAADPPQPHIVGIQSPDQQAALARHNPARPVFVEGPFSLWLRNKCVYYHILRADLLPPEEREVEETPEEWNLYYPMQLDLEYVRSGWDNYEFDINEVEEGPVFAMCMAGAHDQATMAKWIQGLQETNPTLAQIPVVFRLAGSTRELQTSSAGLEEPPLPEDHQEEDDNLQRQQQGQS
B10: C-ECSIT, tag-free (C-terminal domain of ECSIT, Leu249-Ser431) (domain or fragment)
chain: B9 chain
B11: ECSIT, tag-free (mature human mitochondrial ECSIT) (natural protein)
chain: SSEQSLVPSPPEPRQRPTKALVPFEDLFGQAPGGERDKASFLQTVQKFAEHSVRKRGHIDFIYLALRKMREYGVERDLAVYNQLLNIFPKEVFRPRNIIQRIFVHYPRQQECGIAVLEQMENHGVMPNKETEFLLIQIFGRKSYPMLKLVRLKLWFPRFMNVNPFPVPRDLPQDPVELAMFGLRHMEPDLSARVTIYQVPLPKDSTGAADPPQPHIVGIQSPDQQAALARHNPARPVFVEGPFSLWLRNKCVYYHILRADLLPPEEREVEETPEEWNLYYPMQLDLEYVRSGWDNYEFDINEVEEGPVFAMCMAGAHDQATMAKWIQGLQETNPTLAQIPVVFRLAGSTRELQTSSAGLEEPPLPEDHQEEDDNLQRQQQGQS

Legend:
[1] = target: the molecule itself; test: SEC
[2] = target: the molecule itself; test: SEC-SAXS
[3] = target: T1, His6-ECSIT (mature human mitochondrial ECSIT with N-terminal His tag) (human, UniProt Q9BQ95 49-431); test: SEC
T1 sequence: B11 chain

[4] = target: T1, His6-ECSIT (mature human mitochondrial …); test: SEC; remark: listed apart in the source
[5] = target: B2; test: SEC
[6] = target: B4; test: pull-down

Binder | stoichiometry N [1] | also measured
B1 | 2 | 
B2 |  | stoichiometry N [2]: 2
B3 | 2 | 
B4 | 2 | 
B5 | 2 | 
B6 | 2 | 
B7 | 2 | 
B8 |  | stoichiometry N [3]: 1 NDUFAF1 monomer per ECSIT monomer (2:2); stoichiometry N [4]: 1 monomer:monomer
B9 | 4 | stoichiometry N [5]: 1 C-ECSIT monomer per ACAD9 monomer (4:4)
B10 |  | stoichiometry N [6]: ~1 monomer:monomer
B11 |  | stoichiometry N [6]: ~1 monomer:monomer
